Source: patent publication US20260048158A1 (AKTIS ONCOLOGY, published 2026)
Where a chain is given by its changes, count along the chain named. Primed or numbered codes have the meaning given here. The star is where a group is joined. Biotin = O=C1N[C@H]2[C@H](CS[C@H]2CCCCC(=O)*)N1; PEG4′ = not defined here

B1: Compound C234 (designed binder)
chain: CAXEKIAALSEIIWLPCLTYAQIXAFIAALNDDPCQSSEILSEAKELCS
modifications: (Kme3) trimethyllysine at 3; (Kme2) dimethyllysine at 24; N-terminal Biotin-PEG4; C-terminal NH2; two disulfide bridges among Cys1, Cys17, Cys35, Cys48
notes: also called C298
B2: Compound C318 (designed binder)
chain: B1 chain with A29X, D32X, K45X
modifications: (Kme3) at 3; (Kme2) at 24; (Kme) at 29 and 45; (Cit) citrulline at 32; N-terminal Biotin-PEG4; C-terminal NH2; two disulfide bridges among Cys1, Cys17, Cys35, Cys48
B3: Compound C608 (designed binder)
chain: B1 chain with E11X, Q36N, K45X
modifications: (Kme3) at 3; (E(CO-)) at 11 and (K(NH-)) at 45 joined by a lactam bridge; (Kme) at 24; N-terminal Biotin-PEG4; C-terminal NH2; two disulfide bridges
notes: Three constraints (two disulfide bridges, one lactam bridge)
B4: Compound C302 (designed binder)
chain: B1 chain with X3R, S38A, E39N, K45X
modifications: (Kme) monomethyllysine at 24 and 45; N-terminal Biotin-PEG4; C-terminal NH2; two disulfide bridges among Cys1, Cys17, Cys35, Cys48
B5: Compound C300 (designed binder)
chain: B1 chain with X3R, S38A
modifications: (Kme2) at 24; N-terminal Biotin-PEG4; C-terminal NH2; two disulfide bridges among Cys1, Cys17, Cys35, Cys48
B6: Compound C306 (designed binder)
chain: B1 chain with A28X, K45X
modifications: (Kme3) at 3; (Kme) at 24, 28 and 45; N-terminal Biotin-PEG4; C-terminal NH2; two disulfide bridges among Cys1, Cys17, Cys35, Cys48
B7: Compound C304 (designed binder)
chain: B1 chain with K45X
modifications: (Kme3) at 3; (Kme) at 24 and 45; N-terminal Biotin-PEG4; C-terminal NH2; two disulfide bridges among Cys1, Cys17, Cys35, Cys48
B8: Compound C308 (designed binder)
chain: B1 chain with A29X, D32X, K45X
modifications: (Kme3) at 3; (Kme) at 24, 29, 32 and 45; N-terminal Biotin-PEG4; C-terminal NH2; two disulfide bridges among Cys1, Cys17, Cys35, Cys48
B9: Compound C310 (designed binder)
chain: B1 chain with T19N, K45X
modifications: (Kme3) at 3; (Kme) at 24 and 45; N-terminal Biotin-PEG4; C-terminal NH2; two disulfide bridges among Cys1, Cys17, Cys35, Cys48
B10: Compound C312 (designed binder)
chain: B1 chain with Q36N, K45X
modifications: (Kme3) at 3; (Kme) at 24 and 45; N-terminal Biotin-PEG4; C-terminal NH2; two disulfide bridges among Cys1, Cys17, Cys35, Cys48
B11: Compound C316 (designed binder)
chain: B1 chain with A29R, S38A, K45X
modifications: (Rme) methylated arginine at 3; (Kme) at 24 and 45; N-terminal Biotin-PEG4; C-terminal NH2; two disulfide bridges among Cys1, Cys17, Cys35, Cys48
B12: Compound C290 (designed binder)
chain: {Biotin-PEG4′}-CAREKIAALSEIIWLPCLTYAQIQAFIAALNDDPCQSSEILSEAKELCS-NH2
modifications: disulfide (positions not given here)
B13: Compound C286 (designed binder)
chain: {Biotin-PEG4′}-CAREKIAALSEIIWLPCLTYAQILAFIAALNDDPCQSSEILSEAKELCS-NH2
modifications: disulfide (positions not given here)
B14: Compound C284 (designed binder)
chain: {Biotin-PEG4′}-CAREKIAALSEIIWLPCLTYAQIKAFIAALNDDPCQSSEILSEAKELCS-NH2
modifications: disulfide (positions not given here)
B15: Compound C291 (designed binder)
chain: {Biotin-PEG4′}-CAREKIAALSEIIWLPCLTYAQIVAFIAALNDDPCQSSEILSEAKELCS-NH2
modifications: disulfide (positions not given here)
B16: Compound C275 (designed binder)
chain: B1 chain with X3R
modifications: (Kme2) at 24; N-terminal Biotin-PEG4; C-terminal NH2; two disulfide bridges
B17: Compound C245 (designed binder)
chain: CAKEKIAALSEIIWLPCLTYAQIXAFIAALNDDPCQSSELLSEAKELNDSQCP
modifications: (homo-leucine) at 24; N-terminal Biotin-PEG4; C-terminal NH2; disulfide bridges between cysteine pairs (Cys1-Cys35 and Cys17-Cys52 named for SEQ ID NO: 213)
B18: Compound C255 (designed binder)
chain: B17 chain
modifications: (Kme3) at 24; N-terminal Biotin-PEG4; C-terminal NH2; disulfide bridges between cysteine pairs
B19: Compound C253 (designed binder)
chain: B17 chain
modifications: (Kme2) at 24; N-terminal Biotin-PEG4; C-terminal NH2; disulfide bridges between cysteine pairs

What follows are binders tested against T1, B7-H3 expressed on the surface of cells (MCF7 cells; B7-H3-expressing cancer cells) (Homo sapiens (Human), UniProt Q5ZPR3 29-534) (assay: DELFIA on-cell competition assay on MCF7 cells (FIG. 15); single experiment of FIG. 15).
T1 construct: Endogenous B7-H3 on MCF7 cells (DELFIA) and on an unnamed cancer cell line (flow cytometry); also called CD276
T1 sequence: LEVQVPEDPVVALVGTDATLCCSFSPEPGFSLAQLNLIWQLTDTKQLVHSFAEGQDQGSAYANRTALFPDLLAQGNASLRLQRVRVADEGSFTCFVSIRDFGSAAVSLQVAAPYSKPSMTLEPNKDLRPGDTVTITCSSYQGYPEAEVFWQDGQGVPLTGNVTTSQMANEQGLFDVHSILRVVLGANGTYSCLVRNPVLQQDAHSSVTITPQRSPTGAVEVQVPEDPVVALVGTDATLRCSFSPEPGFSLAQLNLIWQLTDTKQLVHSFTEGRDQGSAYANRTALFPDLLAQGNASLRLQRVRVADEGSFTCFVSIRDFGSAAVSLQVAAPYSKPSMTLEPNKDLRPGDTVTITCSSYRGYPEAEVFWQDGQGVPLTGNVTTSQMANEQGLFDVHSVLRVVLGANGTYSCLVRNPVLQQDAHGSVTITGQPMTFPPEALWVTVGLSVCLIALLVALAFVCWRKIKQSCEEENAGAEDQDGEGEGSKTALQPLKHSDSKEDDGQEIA
Method: (§1) Equilibrium binding affinity (KD) was determined using SPR (as in Example 2) or a live cell binding assay (DELFIA) on MCF7 cells that express B7-H3. Binding inhibition constant (Kᵢ) of miniprotein ligands was also determined using MCF7 cells expressing a B7-H3. Cells were dispensed into a 384-well plate and incubated at 37° C. in 5% CO₂ overnight.
(§2) The plate was incubated for 1.5 h at room temperature to reach equilibrium. Cells were then washed to remove unbound ligand and treated according to manufacturer instructions for a DELFIA® (dissociation-enhanced lanthanide fluorescent immunoassay, Revvity Health Sciences). In brief, 2 M HCl was added to each well and incubated for 2 h at 37° C. Following this step, 2 M NaOH and fluorescent inducer solution were added to each well and incubated for 30 minutes at room temperature. Plates were read on an Envision plate reader and a curve-fitting model was applied to estimate KD and Kᵢ values.

Row | Binder | Ki [nM]
1 | B1 | ~1.36

What follows are binders tested against T1, B7-H3 expressed on the surface of cells … (assay: DELFIA competition on live MCF7 cells expressing B7-H3; fixed tracer: europium-chelate miniprotein).
Method: as §1, §2

Row | Binder | Ki [nM]
2 | B1 | 1.72
3 | B2 | 1.24
4 | B3 | 3.58
5 | B4 | 1.34
6 | B5 | 1.91
7 | B6 | 1.24
8 | B7 | 2.24
9 | B8 | 0.872
10 | B9 | 0.886
11 | B10 | 1.01
12 | B11 | 0.873

These binders were tested against T2, His-tagged B7-H3 protein (ThermoFisher, catalog #B7-H3_NP_001019907) (Homo sapiens (Human), UniProt Q5ZPR3 29-466) (assay: SPR (as in Example 2)).
T2 construct: Bought protein immobilised for SPR; also called ligand; target protein; not shown: His tag
T2 sequence: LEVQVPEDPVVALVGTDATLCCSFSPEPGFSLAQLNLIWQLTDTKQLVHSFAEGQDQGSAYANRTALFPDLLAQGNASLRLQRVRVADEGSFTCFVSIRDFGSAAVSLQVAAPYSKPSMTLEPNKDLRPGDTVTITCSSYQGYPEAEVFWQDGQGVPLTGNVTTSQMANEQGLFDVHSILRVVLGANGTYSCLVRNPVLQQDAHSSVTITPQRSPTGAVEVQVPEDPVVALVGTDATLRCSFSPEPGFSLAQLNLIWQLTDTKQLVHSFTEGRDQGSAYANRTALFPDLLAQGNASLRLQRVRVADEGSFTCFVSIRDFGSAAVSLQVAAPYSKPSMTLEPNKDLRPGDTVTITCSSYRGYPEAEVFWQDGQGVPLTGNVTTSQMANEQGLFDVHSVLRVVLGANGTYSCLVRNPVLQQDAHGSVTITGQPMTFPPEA
Method: Surface plasmon resonance (SPR) analyses were performed using Biacore T200 (GE Healthcare). His-tagged B7-H3 protein (ThermoFisher, catalog #B7-H3_NP_001019907), (“ligand”) was immobilized to a Series S NTA chip (Cytiva #28994951). Running buffer was 0.05% Surfactant P20 in HEPES buffered saline (HBS-P), pH 7.4 (Cytiva). Immobilization was performed at 25° C. […] Pulsatile injections were made to target a specific immobilization level. […] Increase in signal (RU) is proportional to an increase in binding events between the analyte and ligand surface. Then injection was then stopped, and dissociation was measured. The resulting sensorgram is reference surface and blank injection subtracted prior to curve fitting. […] KD was calculated using a 1:1 binding model at 25° C.
as §1

Row | Binder | Kd [nM]
13 | B1 | 1.36
14 | B2 | 1.24
15 | B4 | 0.558
16 | B5 | 0.506
17 | B6 | 0.761
18 | B7 | 1.43
19 | B8 | 0.482
20 | B9 | 0.782
21 | B10 | 0.485
22 | B11 | 0.621

The binders below were run against T1, B7-H3 expressed on the surface of cells … (assay: DELFIA competition assay on live MCF7 cells expressing B7-H3; the unlabeled competing ligand is varied against a fixed concentration of the europium-chelate miniprotein tracer).
Method: as §1, §2

Row | Binder | IC50 (read off the curve) [nM]
23 | B1 | ~3

Each binder was assayed against T1, B7-H3 expressed on the surface of cells … (assay: DELFIA competition on cells expressing B7-H3 (as in Example 14); competitor: europium-chelate miniprotein tracer).

Row | Binder | Ki [nM]
24 | B12 | 13.8
25 | B13 | 23.9
26 | B14 | 2.02
27 | B15 | 7.7
28 | B16 | 1.42
29 | B17 | 2.8
30 | B18 | 8.75
31 | B19 | 5.36
